In article PMC1390689:

Target: T1, GSThPif1ΔN (Homo sapiens, UniProt Q9H611 167-641)
T1 sequence: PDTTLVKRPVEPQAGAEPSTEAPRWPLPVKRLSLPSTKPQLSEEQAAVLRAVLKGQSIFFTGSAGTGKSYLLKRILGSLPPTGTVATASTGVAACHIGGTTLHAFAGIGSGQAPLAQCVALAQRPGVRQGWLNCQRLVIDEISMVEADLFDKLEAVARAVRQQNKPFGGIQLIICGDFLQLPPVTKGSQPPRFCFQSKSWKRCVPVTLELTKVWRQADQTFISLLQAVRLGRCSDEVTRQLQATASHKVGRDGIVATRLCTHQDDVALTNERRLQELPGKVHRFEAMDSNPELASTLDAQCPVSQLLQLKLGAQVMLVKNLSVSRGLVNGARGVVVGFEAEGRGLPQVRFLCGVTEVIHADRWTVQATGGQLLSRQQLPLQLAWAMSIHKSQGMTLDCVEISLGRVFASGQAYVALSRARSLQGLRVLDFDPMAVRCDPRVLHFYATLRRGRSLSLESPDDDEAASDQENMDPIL
Assay: EMSA

TTAGGGTTAGGGTTAGGG (ssDNA) [tel18]
binding result: binds
